Measurements reported in paper PMC10397247.
Like-named read-outs stand apart in the source and are kept apart here. Values belong to the binder of their own block, whether it stands above or below them.

Tests used:
Test in all cases: two-hybrid library CCNG1;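 also: natural log of median RNA to DNA barcode read ratio; higher means stronger binding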
P7mS = target: T1, P7mS
T1 chain: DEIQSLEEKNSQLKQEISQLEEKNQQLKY

P9mS = target: T2, P9mS
T2 chain: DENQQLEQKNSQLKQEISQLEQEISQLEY

P8mS = target: T3, P8mS
T3 chain: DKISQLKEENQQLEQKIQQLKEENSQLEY

4H3277-bA = target: T4, 4H3277-bA
T4 chain: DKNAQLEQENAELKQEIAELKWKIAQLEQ

4H2503-bA = target: T5, 4H2503-bA
T5 chain: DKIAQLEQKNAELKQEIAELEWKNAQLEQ

4H2692-bA = target: T6, 4H2692-bA
T6 chain: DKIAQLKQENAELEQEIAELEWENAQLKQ

4H741-bA = target: T7, 4H741-bA
T7 chain: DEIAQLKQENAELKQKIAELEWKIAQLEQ

4H3057-bA = target: T8, 4H3057-bA
T8 chain: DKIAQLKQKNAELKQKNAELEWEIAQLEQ

4H2717-bA = target: T9, 4H2717-bA
T9 chain: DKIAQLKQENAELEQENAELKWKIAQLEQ

4H2915-bA = target: T10, 4H2915-bA
T10 chain: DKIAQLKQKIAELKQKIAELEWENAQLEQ

4H348-bA = target: T11, 4H348-bA
T11 chain: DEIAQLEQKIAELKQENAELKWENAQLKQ

4H40-bA = target: T12, 4H40-bA
T12 chain: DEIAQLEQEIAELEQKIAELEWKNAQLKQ

4H687-bA = target: T13, 4H687-bA
T13 chain: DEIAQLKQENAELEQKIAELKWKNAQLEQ

4H477-bA = target: T14, 4H477-bA
T14 chain: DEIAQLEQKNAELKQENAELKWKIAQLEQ

4H492-bA = target: T15, 4H492-bA
T15 chain: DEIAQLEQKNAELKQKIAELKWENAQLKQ

4H2588-bA = target: T16, 4H2588-bA
T16 chain: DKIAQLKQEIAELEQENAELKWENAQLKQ

4H319-bA = target: T17, 4H319-bA
T17 chain: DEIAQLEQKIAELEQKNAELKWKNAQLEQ

4H3162-bH = target: T18, 4H3162-bH
T18 chain: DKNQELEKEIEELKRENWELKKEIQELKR

4H2839-bA = target: T19, 4H2839-bA
T19 chain: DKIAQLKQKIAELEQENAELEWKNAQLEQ

4H797-bA = target: T20, 4H797-bA
T20 chain: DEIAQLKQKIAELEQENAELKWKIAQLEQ

4H607-bA = target: T21, 4H607-bA
T21 chain: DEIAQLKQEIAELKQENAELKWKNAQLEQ

4H3855-bA = target: T22, 4H3855-bA
T22 chain: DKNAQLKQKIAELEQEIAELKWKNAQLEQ

O15-bH = target: T23, O15-bH
T23 chain: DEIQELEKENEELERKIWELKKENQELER

4H717-bA = target: T24, 4H717-bA
T24 chain: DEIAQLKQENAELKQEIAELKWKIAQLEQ

4H953-bA = target: T25, 4H953-bA
T25 chain: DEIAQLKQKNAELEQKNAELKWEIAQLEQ

4H918-bA = target: T26, 4H918-bA
T26 chain: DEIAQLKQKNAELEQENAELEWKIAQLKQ

4H3782-bA = target: T27, 4H3782-bA
T27 chain: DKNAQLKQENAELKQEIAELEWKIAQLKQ

4H883-bA = target: T28, 4H883-bA
T28 chain: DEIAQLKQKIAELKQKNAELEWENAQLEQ

4H754-bA = target: T29, 4H754-bA
T29 chain: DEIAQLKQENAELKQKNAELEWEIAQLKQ

4H4001-bA = target: T30, 4H4001-bA
T30 chain: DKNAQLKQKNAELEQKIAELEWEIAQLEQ

4H568-bA = target: T31, 4H568-bA
T31 chain: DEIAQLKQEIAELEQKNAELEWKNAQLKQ

4H967-bA = target: T32, 4H967-bA
T32 chain: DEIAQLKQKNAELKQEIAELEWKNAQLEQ

4H908-bA = target: T33, 4H908-bA
T33 chain: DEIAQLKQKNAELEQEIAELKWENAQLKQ

4H338-bA = target: T34, 4H338-bA
T34 chain: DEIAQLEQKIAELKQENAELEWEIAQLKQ

4H454-bA = target: T35, 4H454-bA
T35 chain: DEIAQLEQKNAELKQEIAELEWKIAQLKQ

4H72-bA = target: T36, 4H72-bA
T36 chain: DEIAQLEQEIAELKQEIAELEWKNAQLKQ

4H3427-bA = target: T37, 4H3427-bA
T37 chain: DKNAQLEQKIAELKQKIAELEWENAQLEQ

O16-bN = target: T38, O16-bN
T38 chain: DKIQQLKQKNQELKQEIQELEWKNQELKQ

O4-bN = target: T39, O4-bN
T39 chain: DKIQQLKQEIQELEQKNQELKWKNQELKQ

O5-bN = target: T40, O5-bN
T40 chain: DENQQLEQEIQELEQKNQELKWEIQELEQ

O6-bN = target: T41, O6-bN
T41 chain: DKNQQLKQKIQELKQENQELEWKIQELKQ

O2-bN = target: T42, O2-bN
T42 chain: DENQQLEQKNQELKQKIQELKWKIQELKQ

O9-bN = target: T43, O9-bN
T43 chain: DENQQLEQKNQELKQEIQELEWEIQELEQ

O8-bN = target: T44, O8-bN
T44 chain: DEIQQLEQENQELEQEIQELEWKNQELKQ

O3-bN = target: T45, O3-bN
T45 chain: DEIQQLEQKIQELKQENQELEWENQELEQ

O15-bN = target: T46, O15-bN
T46 chain: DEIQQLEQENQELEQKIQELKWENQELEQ

O7-bN = target: T47, O7-bN
T47 chain: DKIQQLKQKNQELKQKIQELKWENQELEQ

P7bH1 = target: T48, P7bH1
T48 chain: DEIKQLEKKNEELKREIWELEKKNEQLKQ

4H780-bA = target: T49, 4H780-bA
T49 chain: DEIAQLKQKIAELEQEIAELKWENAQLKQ

4H3926-bA = target: T50, 4H3926-bA
T50 chain: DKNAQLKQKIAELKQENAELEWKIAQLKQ

4H346-bA = target: T51, 4H346-bA
T51 chain: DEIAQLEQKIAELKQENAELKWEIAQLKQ

4H457-bA = target: T52, 4H457-bA
T52 chain: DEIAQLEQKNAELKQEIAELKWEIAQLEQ

4H968-bA = target: T53, 4H968-bA
T53 chain: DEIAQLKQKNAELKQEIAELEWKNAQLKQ

4H4073-bA = target: T54, 4H4073-bA
T54 chain: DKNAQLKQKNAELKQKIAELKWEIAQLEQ

4H855-bA = target: T55, 4H855-bA
T55 chain: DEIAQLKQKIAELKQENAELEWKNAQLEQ

4H683-bA = target: T56, 4H683-bA
T56 chain: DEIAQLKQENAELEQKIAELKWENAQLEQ

4H575-bA = target: T57, 4H575-bA
T57 chain: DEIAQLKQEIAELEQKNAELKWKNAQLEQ

B1: P7mS (peptide)
chain: DEIQSLEEKNSQLKQEISQLEEKNQQLKY
interaction score (P7mS): -0.531
interaction score (P9mS): 0.076
interaction score (P8mS): 1.28

B2: 4H2503-bA (peptide)
chain: DKIAQLEQKNAELKQEIAELEWKNAQLEQ
interaction score (4H3277-bA): -0.659
interaction score (4H2503-bA): -0.591
interaction score (4H2692-bA): 0.466
interaction score (4H741-bA): -0.407
interaction score (4H3057-bA): -0.42
interaction score (4H2717-bA): -0.684
interaction score (4H2915-bA): -0.804
interaction score (4H348-bA): -1.13
interaction score (4H40-bA): -0.475
interaction score (4H687-bA): 1.12
interaction score (4H477-bA): -0.816
interaction score (4H492-bA): -0.351
interaction score (4H2588-bA): -0.447
interaction score (4H319-bA): -1.63
interaction score (4H3162-bH): -2.22
interaction score (4H2839-bA): -0.791

B3: 4H338-bA (peptide)
chain: DEIAQLEQKIAELKQENAELEWEIAQLKQ
interaction score (4H797-bA): -0.317
interaction score (4H607-bA): -0.707
interaction score (4H3855-bA): -0.445
interaction score (O15-bH): 0.0935
interaction score (4H717-bA): -0.573
interaction score (4H953-bA): -0.0976
interaction score (4H918-bA): -1.39
interaction score (4H3782-bA): -0.133
interaction score (4H883-bA): -0.973
interaction score (4H754-bA): -0.95
interaction score (4H4001-bA): 0.217
interaction score (4H687-bA): -1.18
interaction score (4H568-bA): 0.415
interaction score (4H967-bA): 0.424
interaction score (4H908-bA): -0.695
interaction score (4H338-bA): 0.363
interaction score (4H454-bA): 2.01
interaction score (4H72-bA): -0.139
interaction score (4H3427-bA): 0.0707

B5: 4H3427-bA (peptide)
chain: DKNAQLEQKIAELKQKIAELEWENAQLEQ
interaction score (P7bH1): -0.632
interaction score (4H797-bA): -0.827
interaction score (4H607-bA): -0.868
interaction score (4H3855-bA): -0.947
interaction score (4H780-bA): -1.09
interaction score (4H717-bA): -1.4
interaction score (4H953-bA): -1.25
interaction score (4H918-bA): -0.926
interaction score (4H3926-bA): -0.817
interaction score (4H3782-bA): -0.499
interaction score (4H883-bA): -0.625
interaction score (4H754-bA; mean of both orientations): -0.767
interaction score (4H4001-bA): -0.314
interaction score (4H687-bA): -1.79
interaction score (4H346-bA): -1.15
interaction score (4H457-bA): -1.11
interaction score (4H968-bA): -0.904
interaction score (4H568-bA): 0.738
interaction score (4H4073-bA): 0.792
interaction score (4H967-bA): -1.02
interaction score (4H855-bA): -1.16
interaction score (4H908-bA): -0.823
interaction score (4H683-bA): -0.996
interaction score (O15-bN): -0.0232
interaction score (4H575-bA): 0.0418
interaction score (4H454-bA): -0.617
interaction score (4H72-bA): 0.449
interaction score (4H3427-bA): 0.0593

The remaining lines, values ahead:

interaction score (O16-bN): 1.69
interaction score (O4-bN): -1.01
interaction score (O5-bN): -0.308
interaction score (O6-bN): 0.642
interaction score (O2-bN): 0.0465
interaction score (O9-bN): -0.149
interaction score (O8-bN): -1.68
interaction score (O3-bN): 0.477
interaction score (O15-bN): -0.117
interaction score (O7-bN): 1.78
B4: O14-bN (peptide)
chain: DENQQLEQEIQELEQENQELEWKIQELKQ

interaction score (O16-bN): -1.23
interaction score (O4-bN): -2.32
interaction score (O5-bN): -2.42
interaction score (O6-bN): -0.733
interaction score (O2-bN): -1.79
interaction score (O9-bN): -1.61
interaction score (O8-bN): -1.07
interaction score (O3-bN): -0.827
interaction score (O15-bN): -0.801
interaction score (O7-bN): -1.39
B6: O13-bN (peptide)
chain: DKNQQLKQKIQELKQKNQELKWEIQELEQ

interaction score (O16-bN): 1.92
interaction score (O4-bN): 0.275
interaction score (O5-bN): -0.822
interaction score (O6-bN): -0.314
interaction score (O2-bN): -1.5
interaction score (O9-bN): -0.491
interaction score (O8-bN): -1.62
interaction score (O3-bN): -0.189
interaction score (O15-bN): -0.195
interaction score (O7-bN): 1.29
B7: O15-bN (peptide)
chain: DEIQQLEQENQELEQKIQELKWENQELEQ
